According to US20250340630A1 (SICHUAN KELUN BIOTECH BIOPHARMACEUTICAL, published 2025):
Where two headings read alike, the source gives them in different places. Each block holds one binder with its values, some of them ahead of it.

What was measured:
[1] = target: T1, human Claudin18.2 (human, UniProt P56856-2 1-261); test: cell-based or functional assay
[2] = target: T1, human Claudin18.2; test: cell-based or functional assay; remark: listed apart in the source
[3] = target: T1, human Claudin18.2; test: cell-based or functional assay; remark: listed apart in the source
[4] = target: T1, human Claudin18.2; test: cell-based or functional assay; remark: listed apart in the source
[5] = target: T1, human Claudin18.2; test: flow cytometry on Ba/F3-Claudin18.2 cells
[6] = target: T1, human Claudin18.2; test: flow cytometry on HEK293T-Claudin 18.2 cells
Experimental: HEK293T-Claudin 18.2 cells were detached and centrifuged, followed by washing for twice with PBS. And then the cells were resuspended in PBS containing 1% BSA and were plated into 96-well tip bottom plate at 300000 cells per well in a volume of 50 μl for 20 wells in total. […] Human IgG was served as negative control. The reactions were mixed well and incubated for 1 h at 4° C. in the dark. Following by three times of washing with PBS, the FITC-labelled anti-human Fc secondary antibody (Biolegend, 409322) was added and incubated for 0.5h in the dark. Detection was performed by flow cytometry (Beckman, Cytoflex) after washing for three times with PBS.

[7] = target: T1, human Claudin18.2; test: cellular ELISA on fixed L929-Claudin 18.2 cells
Experimental: (§1) Human Claudin18.2 is a four transmembrane protein and has a complex structure. Cellular ELISA was thus carried out to maintain the structure of Claudin18.2. […] The cells were resuspended and adjusted to 2×10⁵/mL and 100 μL of the resuspension was plated into 96 well plate and incubated overnight at 37° C. The next day, the media was removed, and the plate was washed with PBS once. 100 μL/well 4% formaldehyde was added to the plate. After 30 min of incubation at room temperature, formaldehyde was removed, followed by washing twice with PBS. Blocking buffer (PBS containing 2% BSA) was then added to the plate at 100 μL/well, and incubated at 37° C. for 2 h. After removal of blocking buffer, 100 μL/well of serially diluted antibodies (starting from 1 μM, with 4-fold dilution, for a total of 11 concentrations) were added to the corresponding wells, which were incubated at 37° C. for 2h afterwards. The plate was washed with 250 μL PBST for 5 times, and was allowed to stand for 2 min each time. […] The plate was incubated at 37° C. for 1 h and washed with 250 μL PBST 6 times, wherein the plate was allowed to stand for 2 min each time. 100 μL/well of TMB solution (Thermo, 34029) was added. […] The absorbance at 450 nm was read on a plate reader (MD, SpectraMax M2) and the results were subjected to curve fitting by Graphpad Prism.

[8] = target: T1, human Claudin18.2; test: cellular ELISA on fixed L929-Claudin 18.2 cells; remark: listed apart in the source
Experimental: as §1

[9] = target: T1, human Claudin18.2; test: cellular ELISA on NUGC-4 cells (endogenous human Claudin18.2)
Experimental: The cells were resuspended and adjusted to 2×10⁵/mL and 100 μL of the resuspension was plated into 96 well plate and incubated overnight at 37° C. The next day, the media was removed, and the plate was washed with PBS once. 100 μL/well 4% formaldehyde was added to the plate. After 30 min of incubation at room temperature, formaldehyde was removed, followed by washing twice with PBS. Blocking buffer (PBS containing 2% BSA) was then added to the plate at 100 μL/well, and incubated at 37° C. for 2 h. After removal of blocking buffer, 100 μL/well of serially diluted antibodies (starting from 1 μM, with 4-fold dilution, for a total of 11 concentrations) were added to the corresponding wells, which were incubated at 37° C. for 2h afterwards. The plate was washed with 250 μL PBST for 5 times, and was allowed to stand for 2 min each time. […] The plate was incubated at 37° C. for 1 h and washed with 250 μL PBST 6 times, wherein the plate was allowed to stand for 2 min each time. 100 μL/well of TMB solution (Thermo, 34029) was added. The reactions were incubated at 37° C. for 20 min and stopped with 50 μL 2 mol/L H₂SO₄. The absorbance at 450 nm was read on a plate reader (MD, SpectraMax M2) and the results were subjected to curve fitting by Graphpad Prism.

[10] = target: T2, human Claudin18.1 (human, UniProt P56856 1-261); test: flow cytometry on Ba/F3-Claudin18.1 cells
T2 construct: whole, on cells; Presented on transfected cells; also called CLDN18.1
Experimental: (§2) The affinity of the candidates to Claudin18.2 was measured using FACS. […] Ba/F3-Claudin18.1 and Ba/F3-Claudin18.2 cells were incubated with the purified mouse antibodies at various concentrations on ice for 30 min and mouse IgG was used as negative control (Thermo Fisher, Cat: 31903), followed by washing with FACS buffer (PBS+2% FBS) twice.

[11] = target: T1, human Claudin18.2; test: flow cytometry on Ba/F3-Claudin18.2 cells, purified mouse antibody
Experimental: as §2

[12] = target: T1, human Claudin18.2; test: cell-based or functional assay; remark: listed apart in the source
[13] = target: T1, human Claudin18.2; test: cellular ELISA on fixed L929-Claudin 18.2 cells; remark: listed apart in the source
Experimental: Human Claudin18.2 is a four transmembrane protein and has a complex structure. Cellular ELISA was thus carried out to maintain the structure of Claudin18.2. […] The cells were resuspended and adjusted to 2×10⁵/mL and 100 μL of the resuspension was plated into 96 well plate and incubated overnight at 37° C. The next day, the media was removed, and the plate was washed with PBS once. 100 μL/well 4% formaldehyde was added to the plate. After 30 min of incubation at room temperature, formaldehyde was removed, followed by washing twice with PBS. Blocking buffer (PBS containing 2% BSA) was then added to the plate at 100 μL/well, and incubated at 37° C. for 2 h. After removal of blocking buffer, 100 μL/well of serially diluted antibodies (starting from 1 μM, with 4-fold dilution, for a total of 11 concentrations) were added to the corresponding wells, which were incubated at 37° C. for 2h afterwards. The plate was washed with 250 μL PBST for 5 times, and was allowed to stand for 2 min each time. […] The plate was incubated at 37° C. for 1 h and washed with 250 μL PBST 6 times, wherein the plate was allowed to stand for 2 min each time. 100 μL/well of TMB solution (Thermo, 34029) was added. The reactions were incubated at 37° C. for 20 min and stopped with 50 μL 2 mol/L H₂SO₄. The absorbance at 450 nm was read on a plate reader (MD, SpectraMax M2) and the results were subjected to curve fitting by Graphpad Prism.

[14] = target: T1, human Claudin18.2; test: flow cytometry (IntelliCyt) on Ba/F3-Claudin18.2 cells
Description: In order to evaluate the anti-Claudin18.2 humanized antibodies, codon optimized cDNAs of the heavy chains and the light chains of the candidate humanized antibodies from Example 6 were synthesized and ligated into pcDNA3.4 (by Nanjing Genscript Biotech Corporation). Expi293F cells (purchased from Thermo Incorporation) were co-transfected with pcDNA3.4 coding the heavy chain and light chain of each antibody. The antibodies were purified from the supernatant using protein A (MabSelect SuRe, GE). The affinity of the humanized antibodies to Claudin18.2 was determined using Ba/F3-Claudin18.2 cells which over-expressed human Claudin18.2. Ba/F3-Claudin18.2 cells (60000 in 10 ul buffer) were incubated with purified humanized antibodies on ice for 30 min, followed by washing with buffer (PBS+2% FBS) twice and addition of Alexa647-labeled goat-anti-human IgG Fc antibody (1:500 dilution). The cells were incubated on ice for another 30 min and analyzed by IntelliCyt.

[15] = target: T2, human Claudin18.1; test: flow cytometry, HEK293T-human Claudin 18.1 cells compared with HEK293T cells
Experimental: The specificity of candidate antibodies was detected by FACS. […] After washing twice with PBS, the cells were resuspended with PBS containing 1% BSA. 300,000 cells for each cell line were added with the candidate antibodies at a final concentration of 1000 nM, mixed well, and incubated for 1 h at 4° C., protected from light. Then the cells were washed for three times with PBS and FITC-labeled anti-human Fc secondary antibody (BioLegend, 409322) was added, followed by 0.5h of incubation at 4° C. in the dark. Detection was performed by flow cytometry (Beckman, Cytoflex) after washing with PBS for three times.

ADCC EC50, Ba/F3-Claudin18.2 target cells, NK-92MI_mCD16 effectors [1]: 0.351 µg/mL
CDC EC50 on HEK293T-Claudin 18.2 cells (guinea pig serum, CellTiter-Glo) [2]: 3.32 µg/mL
ADCC EC50 on HEK293T-Claudin 18.2 cells (NK92MI-CD16a, LDH) [3]: 0.0336 µg/mL
ADCC EC50 on KATOIII-Claudin 18.2 cells (NK92MI-CD16a, LDH) [3]: 0.0101 µg/mL
ADCC EC50 on L929-Claudin 18.2 cells (NK92MI-CD16a, LDH) [3]: 0.0781 µg/mL
ADCC EC50 on NUGC-4 cells (NK92MI-CD16a, LDH) [3]: 1.22 µg/mL
ADCC EC50 on HEK293T-Claudin 18.2 cells (NK92MI-CD16a, LDH) [4]: 0.0577 µg/mL
EC50 [5]: 18000 pM
EC50 [6]: 8220 pM
EC50 [7]: 180 pM
EC50 [8]: 150 pM
EC50 [9]: ~664000 pM
B1: IMAB362 (antibody, V domains shown)
VH: QVQLQQPGAELVRPGASVKLSCKASGYTFTSYWINWVKQRPGQGLEWIGNIYPSDSYTNYNQKFKDKATLTVDKSSSTAYMQLSSPTSEDSAVYYCTRSWRGNSFDYWGQGTTLTVSS
VL: DIVMTQSPSSLTVTAGEKVTMSCKSSQSLLNSGNQKNYLTWYQQKPGQPPKLLIYWASTRESGVPDRFTGSGSGTDFTLTISSVQAEDLAVYYCQNDYSYPFTFGSGTKLEIKR
ADCC Max killing rate %, Ba/F3-Claudin18.2 target cells [1]: 54.2%

binding result [10]: no binding
EC50 [11]: 10600 pM
Max MFI [11]: 6.11e+06 MFI
B2: mouse antibody 2C6.9 (antibody, V domains shown)
VH: QVQLKESGPGLVAPSQSLSITCTVSGFSLTRYGVSWVRQPPGKGLEWLGVIWGDGNTNFHSFLKSRLSISKDSSKSQVFLKLNSLQTDDTATYYCARVNFGNALDYWGQGTSVTVSS
VL: DIVMTQSPSSLTVTAGEEVTMSCKSSQSLLNSGNQKNYLTWYQQKPGQPPKLLIYWASTRDSGVPDRFTGSGSGTDFTLTISSVQSEDLAVYYCQNDFIFPLTFGAGTKLELK
notes: Purified from hybridoma; also called 2C6.9.2

CDC activity on HEK293T-Claudin 18.2 cells, fold against IMAB362 [12]: 3.5 fold
ADCC EC50, Ba/F3-Claudin18.2 target cells, NK-92MI_mCD16 effectors [1]: 0.041 µg/mL
ADCC EC50 on HEK293T-Claudin 18.2 cells (NK92MI-CD16a, LDH) [3]: 0.0528 µg/mL
ADCC EC50 on KATOIII-Claudin 18.2 cells (NK92MI-CD16a, LDH) [3]: 0.00359 µg/mL
ADCC EC50 on L929-Claudin 18.2 cells (NK92MI-CD16a, LDH) [3]: 0.00239 µg/mL
ADCC EC50 on NUGC-4 cells (NK92MI-CD16a, LDH) [3]: 0.134 µg/mL
EC50 [7]: 100 pM
EC50 [13]: 90 pM
Max Signal Value (OD450) [13]: 0.8 OD450
Max MFI [14]: 1.13e+07 MFI
EC50 [9]: 413 pM
binding result [15]: no binding (tested: 1000 nM)
B3: humanized antibody 1E9.2-hz11 (antibody, human IgG1, kappa, V domains shown)
VH: EVQLVESGGGLVKPGGSLRLSCAASGFSFSNSAMSWVRQAPGKGLEWVSTISSGDSYTYYADSVKGRFTISRDNAKNSLYLQMNSLRAEDTAVYYCARQGYGNALDYWGQGTLVTVSS
VL: DIVMTQSPDSLAVSLGERATINCKSSQSLLNSGNQKNYLTWYQQKPGQPPKLLIYWSSTRESGVPDRFSGSGSGTDFTLTISSLQAEDFAVYYCQNDYYYPLTFGGGTKVEIKR
notes: human IgG1 / kappa
ADCC Max killing rate %, Ba/F3-Claudin18.2 target cells [1]: 60.2%
